{"source": "paper PMC13365404", "molecular_target": "EBOV GP ectodomain for structural work (EBOV Mayinga, residues 33-651, mucin-like domain deleted, double Strep-tag) (Orthoebolavirus zairense (Ebola virus, EBOV), Mayinga) (UniProt Q05320)", "experiment": "cryo-EM structure", "data": [{"substance": "EBOV GP ectodomain for structural work (EBOV Mayinga, residues 33-651, mucin-like domain deleted, double Strep-tag) (from UniProt Q05320 33-651) (domain or fragment)", "values": [{"measurement": "stoichiometry N", "value": 3}]}]}
